Experimental data published in paper doi:10.1101/2023.02.03.526715 (bioRxiv, 2023).

Target: recombinant human cardiac troponin I tagged with GST (human, UniProt P19429 1-210)
Experiment: ELISA

recombinant human cardiac troponin I tagged with GST, sequence (P19429 whole entry): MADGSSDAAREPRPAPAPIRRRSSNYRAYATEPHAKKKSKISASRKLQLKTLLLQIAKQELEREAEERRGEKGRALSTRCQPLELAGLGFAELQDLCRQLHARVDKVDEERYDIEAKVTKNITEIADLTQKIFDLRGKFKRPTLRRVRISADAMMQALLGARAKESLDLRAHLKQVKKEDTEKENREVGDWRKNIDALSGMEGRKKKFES

## AGRKLALKTI [P888, ten amino acid peptide corresponding to ATP synthase subunit d residues 2-11]
  binding result: binds
